Laboratory results published in the DeepSol protein solubility set.

Assay: soluble on expression in E. coli; label from the status in PepcDB or PDB records

| Sequence | soluble on expression in E. coli |
| --- | --- |
| MGSDKIHHHHHHMPHHQPCPPASSLSAGPRGGVIMLILKNVTAVQLHPAKVQEGVDIAIENDVIVAIGDALTQRYPDASFKEMHGRIVMPGIVCSHNHFYSGLSRGIMANIAPCPDFISTLKNLWWRLDRALDEESLYYSGLICSLEAIKSGCTSVIDHHASPAYIGGSLSTLRDAFLKVGLRAMTCFETTDRNNGIKELQEGVEENIRFARLIDEAKKATSEPYLVEAHIGAHAPFTVPDAGLEMLREAVKATGRGLHIHAAEDLYDVSYSHHWYGKDLLARLAQFDLIDSKTLVAHGLYLSKDDITLLNQRDAFLVHNARSNMNNHVGYNHHLSDIRNLALGTDGIGSDMFEEMKFAFFKHRDAGGPLWPDSFAKALTNGNELMSRNFGAKFGLLEAGYKADLTICDYNSPTPLLADNIAGHIAFGMGSGSVHSVMVNGVMVYEDRQFNFDCDSIYAQARKAAASMWRRMDALA | not soluble |
| MGSDKIHHHHHHACKNKTGGPATASSELTDDALMDTVQRRTFLYFWEGAEPNSGLAPERYHVDGVYPQNDANVVTSGGSGFGIMAILAGIDRGYVTREEGLARMERIVSFLEKADRFHGAYPHWWYGDTGKVKPFGQKDNGGDLVETAFLMQGLLAVHQYYINGNEKEKALAARIDQIWKDVDWNWYRNGDQNVLYWHWSPTYGWEMDFPIHGYNECMIMYILAAASPTHGVPAAVYHDGWAQNGAIVSPHKVEGIELHLRYQGTEAGPLFWAQYSFLGLDPVGLKDEYCPSYFHEMRNLTLVNRAYCIRNPKHYKGFGPDCWGLTASYSVDGYAAHSPNEQDDKGVISPTAALSSIVYTPEYSMQVMRHLYNMGDTVFGPFGFYDAFSETDNWYPQRYLAIDQGPIAVMIENYRTGLLWKLFMSHPDVQAGLTKLGFNTNKQDVRQK | not soluble |
| MNEDVIVDRQYSHGAALTIRAFWAADEESRAAIAKASGLRWVPSSADQPGEQHWPYTEIFQRQMQMELGPDTETRLRIHQPSQLWVRAPSLGEGWLAVPLYPHPLRGQRI | not soluble |
| MGSKRRFSSEHPDPVETSIPEQAAEIAEELSKQHPLPSEEPLVHHDAGEFKGLQRHHTSAEEAQKLEDGKINPFTGREFTPKYVDILKIRRELPVHAQRDEFLKLYQNNQIMVFVGETGSGKTTQIPQFVLFDEMPHLENTQVACTQPRRVAAMSVAQRVAEEMDVKLGEEVGYSIRFENKTSNKTILKYMTDGMLLREAMEDHDLSRYSCIILDEAHERTLATDILMGLLKQVVKRRPDLKIIIMSATLDAEKFQRYFNDAPLLAVPGRTYPVELYYTPEFQRDYLDSAIRTVLQIHATEEAGDILLFLTGEDEIEDAVRKISLEGDQLVREEGCGPLSVYPLYGSLPPHQQQRIFEPAPESHNGRPGRKVVISTNIAETSLTIDGIVYVVDPGFSKQKVYNPRIRVESLLVSPISKASAQQRAGRAGRTRPGKCFRLYTEEAFQKELIEQSYPEILRSNLSSTVLELKKLGIDDLVHFDFMDPPAPETMMRALEELNYLACLDDEGNLTPLGRLASQFPLDPMLAVMLIGSFEFQCSQEILTIVAMLSVPNVFIRPTKDKKRADDAKNIFAHPDGDHITLLNVYHAFKSDEAYEYGIHKWCRDHYLNYRSLSAADNIRSQLERLMNRYNLELNTTDYESPKYFDNIRKALASGFFMQVAKKRSGAKGYITVKDNQDVLIHPSTVLGHDAEWVIYNEFVLTSKNYIRTVTSVRPEWLIEIAPAYYDLSNFQKGDVKLSLERIKEKVDRLNELKQGKNKKKSKHSKKHHHHHH | soluble |
| GSACELPECQEDAGNKVCSLQCNNHACGWDGGDCSLNFNDPWKNCTQSLQCWKYFSDGHCDSQCNSAGCLFDGFDCQRAEGQCNPLYDQYCKDHFSDGHCDQGCNSAECEWDGLDCAEHVPERLAAGTLVVVVLMPPEQLRNSSFHFLRELSRVLHTNVVFKRDAHGQQMIFPYYGDVRGSIVYLEIDNRQCVQASSQCFQSATDVAAFLGALASLGSLNIPYKIEAVQSETVEPANSHHHHHH | soluble |
| MSLKQYSVKELTKLYKFLVIKANETRKLTLQDKNGIVKSNTDYNGVINRAQLGYDNILDILPSVSGSYSKPKYIISSNLMCYTGITGIYFPFTGEANVNIAIPDLYIPCTVEHEMAHQRGFASEDEANFIAYLTSIKHPNIDFNYSGYILALNYTASALSKVDYNAYVDISAGISDSVRRDLKNESEFWQKYEGKINEISNEFNNSYLKANGVTEGTQSYGKMVDLLLTYYELYPYNEGHHHHHH | soluble |
| MGSDKIHHHHHHMTKFLIDSLQPKLVAQFARIIDRKQLAQSYLFVGPKGAGKLALAEWIALRLFCQNVQDGAPCGQCPECERILNHNHPDVMVVKTETQSIKVDDIRGLKQEMSKTGVEGNQRVFVVEDADKMTAGAANSLLKFFEEPVPGMTVILTATSKNQLLPTILSRAQVITFQSPDRSAVIAKLEEGGATSQMARVAGRLTGNVADAQALLASATFQDRVTKVFQLLERLADHDPESFVRVQTQLLPIAKDADSQRQVLALIGLAYADALNQHFQVTSMQQLDLPAIGVLAQRSSEQLTTALQAILTAQVRLSQNVTFQSATEQLMLKLLEG | not soluble |
| MAICPELAQTDKSALANLSDETETLKNFTDEVQTSSSFSSSGGRQSSPLTSGSKLEREKQTPSLEQGDTQSELLDYKNYEKKLSKKWINYLKLKDSNFERHQPDTKLPTEITRVSDEELNALQSYCTMKINLIHRRGDSKKKTSSRHKKLHLGLDVEASERDAFSCTVPDELLNRIYFKNMRTTPKQEAAAKQHISYQCPYCNRKRAELALSAFLKQKKTLLESFLLQERIDEHLHTKDFLTRIGEAHQDFPRLSDDPRIIWKRLTEKSHIRYSGFERSETEQKMQRDGNSACHLPFSLPFLKRLTLIKPELVIVNDNV | not soluble |
| MSSVLDVTKPDFDVEAFVVKLLREKSLDGLVKEEEEMVSAVRRLDSDVHQIVYENYNKFLTATNTVRKIQDEFTQLDSEMKSLSRSMSTISTLIGNLDGVLGEKRDDILQLGSSYKVVNSLKHIFDLPHVLRSEFDERNYGEVLRMFKLAEESLSQYKDVPTVQLVLQKSKKIYDMTENQLMDQLRNPASGAELVSEAVDLLLTIGRDEDEVQKVLLTCSEQSLRVDLKELSANHSDVLDLVDKASESFIPNLTLIATTHDRLFEDKREDLITVLKTEMNSLHALVSKVFLSSSDAKDCSIVVRALDRYFRKISTCRYVIPGLDFLPLTIELINAVSKHEIDLSLTRIKEELKNGLNEVRKALINEEKDLSALASKIEQVFVHQVKTALANLLLFTASDVTFANLPPDEFRQSFSFNAHERLLVQAFHRFSELADEYESGAGEIRFVDPRVHLVFAVALQHLSNKSAVYLLNLCREQFSLSPDDGLTDITVVMSEVKTRAQKLVRCYAEKTGLSMGETLIKGCAMLVQPAATPSAVRASVRRLVEEMNTCDSELTLLLGGDSKPKDSRVSRRPITTALDAARDSLWCERIDFHLQIHFNRASIITVIVKVVLKIFIESIRLQTYSKFGVEQVQVDCYYLQRCLAALVSDEVVVNSMVDQALSSALKRCQDPVLVHPSRLAQLCEQPPANRPSSQASSLGY | not soluble |
| MGVEIQSPQEQSSYTVEQLVALNPFNPEILPDLENYVNVTSQTYSLEVNLCLLRLYQFEPERMNTHIVARILVKALMAMPTPDFSLCLFLIPERVQMEEQFKSLIVLSHYLETGRFQQFWDEAAKNRHILEAVPGFEQAIQAYASHLLSLSYQKVPRSVLAEAVNMDGASLDKFIEQQVTNSGWIVEKEGGSIVLPQNEFNHPELKKNTGENVPLEHIARIFPILG | not soluble |
| MGSDKIHHHHHHMETFGGQVGRQEVPESSIDRYRGKLPNQLLTYWAEHGWCGYGDGIFWTVNPQEYDAVVASWLEGTKFETFDAYHLIARSAFGDLYLWGEEIGASLKITSILSRYTTHKSLCLGSQMDKGLQSFILSRKVGSNDYGDLFRPARKKLGTLHHDEMYGFVPALMLGGADTLDHLEKVKAVEHLVLLSQLSDLESYDFQDL | not soluble |
| MGSDKIHHHHHHMAVELRYDEEAVFLRRVNRFVVEVKSSRGVVRCHLMDTGRIDHLASPGRRGVLIAWLNRLGGKTVCRAQAFKTAGGVVAVVDSRVPNRLFAEAAPMVVGGDASIEAEREVFGSRLDFLISTGRGLWAVEVKGVNLSLDGVGLFPNAPSARAVKHLEVLARLAREGVKPLMAFVALRPDIRVFAPNYRVDRRFASLACTLLRRGLVGMVGIRVSIDLEPGVVRIRPVATAPVQCPPLQPGR | not soluble |
| MYKLIDSAKFIMCVRSKRFRPDTLMDIFYLLNIQNMNCKKLFKTLLFIITTLVIVSCSKDDCDLDHIDKLQGLPALKAGTFPEEDLTLNVGEQYVYAPKASSPLDIYYQWYQNGEDMSTAPSFTFNAEHPGRSKVILELSNDLGKVTLENKVMVPGADYSKGCLIINEGWFGHGSGSISFYNYEKNSIEHWCYKNQNFGDVLGVTSQSATLWNGKLYVCSKEDNQLVVMDPKTLYAENSCGKLANYQAYEFIGLNDDYGIITHGGYFSRINLKTFETITLVSVGNTYTGTGSGIAYNGKLILNVNSSGWGSPKVYTIDIAELCSPDLKPTDKVAFQELDIATYGGTRFVQCKDGNIYTVETTKDGKNNLVRINADFSLKKVAMRDDYSPSSFGAYREASFCGTPEGIFYYIAGGKIYKATFDNPAPEETLTEYTKEGYGFYGAGIRVNPKTNELLAMYLTGDYQKNLLVRFNAATGEKISEIAYDGYYFPATFIFN | not soluble |
| MSIYKIPLPLNILEAARERITWTLNTLPRVCVSFSGGKDSGLMLHLTAELARQMGKKICVLFIDWEAQFSCTINYVQSLRELYTDVIEEFYWVALPLTTQNSLSQYQPEWQCWEPDVEWVRQPPQDAITDPDFFCFYQPGMTFEQFVREFAEWFSQKRPAAMMIGIRADESYNRFVAIASLNKQRFADDKPWTTAAPGGHSWYIYPIYDWKVADIWTWYANHQSLCNPLYNLMYQAGVPLRHMRICEPFGPEQRQGLWLYHVIEPDRWAAMCARVSGVKSGGIYAGHDNHFYGHRKILKPEHLDWQEYALLLLNSMPEKTAEHYRNKIAIYLHWYQKKGIEVPQTQQGDIGAKDIPSWRRICKVLLNNDYWCRALSFSPTKSKNYQRYNERIKGKRQEWGILCNND | not soluble |
| MSLAAESTYKKLVMLVDDNETDNFIHRRVLEMGNFSKNIIVKNSGKSALEYLEANQSNSELIPEVIFLDINMPIVDGFVFLFEFESFPESIKERCKIIVLSSSDNKKDIDRIVDNDYVVHFITKPLSEDSIAELKKMVEGHHHHHH | soluble |
| MAHHHHHHMAANGCFIAALIARTHDRLPLCSYTDDNYSNANVIRQQEQRIVERMESPAGGTDRAAAKGSYYESFDHKDNVYFAFQDAATDLTLVVAVNKLLLRNSGDINGMNKLACGLLDLIFSEFIQMYTPAEIGAPNVRAYQFIKFDATLRKCVTRIMQQDRTTGDRIV | not soluble |
